This is an account of results in US20250353926A1 (ENLAZA THERAPEUTICS, published 2025).

A word on the koff: it is the rate constant with which the complex falls apart. Read a low koff as slow dissociation. The term kon denotes the rate constant with which the complex forms. Low readings indicate slower complex formation, high ones faster complex formation.

Experiment [1] concerns the target T1, biotin-labeled CD16a (Acro P/N CDA-H82E8) (human, UniProt P08637 17-208, biotin-labeled (site not stated)).
T1 construct: also called recombinant human CD16a; immobilized CD16a
In words: BLI (Octet), biotin-CD16a on streptavidin sensors, dilutions from 200 nM to 3.125 nM. (In general: Biolayer interferometry detects binding as a change in optical thickness at a sensor tip.)

The target of experiment [2] is T2, PSMA expressed on target cells (PC3pip cells, high density; 22Rv1 cells, low density) (UniProt Q04609 1-750, limits assumed). Kind of experiment: cell-based or functional assay.
In experiment [3] the target is T2, PSMA expressed on target cells (PC3pip …). In words: cell-based or functional assay. This is another data set of the same source.
The target is the same in experiment [4]. In words: cell-based or functional assay. The source holds these as a separate data set.
Experiment [5] shares this target. In words: cell-based or functional assay. This is another data set of the same source.
For experiment [6] the target is unchanged. In words: cell-based or functional assay. This is another data set of the same source.
For experiment [7] the target is unchanged. Kind of experiment: cell-based or functional assay. The source holds these as a separate data set.
For experiment [8], the target named is T1, biotin-labeled CD16a (Acro P/N …). Kind of experiment: BLI, biotin-labeled CD16a on streptavidin biosensors, pH 7.4.
Experiment [9] concerns the target T3, Biotinylated his-tagged human PSMA (human, UniProt Q04609 44-750, limits assumed, biotinylated (site not stated)).
T3 construct: also called immobilized PSMA; not shown: his tag
In words: BLI, biotinylated his-tagged human PSMA on streptavidin sensors, pH 5.7.

Experiment [10] deals with T3, Biotinylated his-tagged human PSMA. Kind of experiment: BLI, biotinylated his-tagged human PSMA on streptavidin sensors, pH 7.4.
For experiment [11], the target named is T2, PSMA expressed on target cells (PC3pip …). In words: cell-based or functional assay. The source holds these as a separate data set.
The target of experiment [12] is T3, Biotinylated his-tagged human PSMA. In words: BLI, biotinylated his-tagged human PSMA on streptavidin sensors, pH 7.4; covalent crosslinking.
Experiment [13] shares this target. In words: BLI, biotinylated his-tagged human PSMA on streptavidin sensors, pH 7.4; covalent crosslinking; pH 7.4; apparent KD under covalent crosslinking.
Experiment [14] has the same target. In words: BLI, biotinylated his-tagged human PSMA on streptavidin sensors, pH 7.4; non 1:1 binding (covalent crosslinking); pH 7.4; non 1:1 binding (crosslinking to PSMA).

Where a chain is given by its changes, count along the chain named. In names and notes the source's numbering stands.

T2 sequence (Q04609 whole entry): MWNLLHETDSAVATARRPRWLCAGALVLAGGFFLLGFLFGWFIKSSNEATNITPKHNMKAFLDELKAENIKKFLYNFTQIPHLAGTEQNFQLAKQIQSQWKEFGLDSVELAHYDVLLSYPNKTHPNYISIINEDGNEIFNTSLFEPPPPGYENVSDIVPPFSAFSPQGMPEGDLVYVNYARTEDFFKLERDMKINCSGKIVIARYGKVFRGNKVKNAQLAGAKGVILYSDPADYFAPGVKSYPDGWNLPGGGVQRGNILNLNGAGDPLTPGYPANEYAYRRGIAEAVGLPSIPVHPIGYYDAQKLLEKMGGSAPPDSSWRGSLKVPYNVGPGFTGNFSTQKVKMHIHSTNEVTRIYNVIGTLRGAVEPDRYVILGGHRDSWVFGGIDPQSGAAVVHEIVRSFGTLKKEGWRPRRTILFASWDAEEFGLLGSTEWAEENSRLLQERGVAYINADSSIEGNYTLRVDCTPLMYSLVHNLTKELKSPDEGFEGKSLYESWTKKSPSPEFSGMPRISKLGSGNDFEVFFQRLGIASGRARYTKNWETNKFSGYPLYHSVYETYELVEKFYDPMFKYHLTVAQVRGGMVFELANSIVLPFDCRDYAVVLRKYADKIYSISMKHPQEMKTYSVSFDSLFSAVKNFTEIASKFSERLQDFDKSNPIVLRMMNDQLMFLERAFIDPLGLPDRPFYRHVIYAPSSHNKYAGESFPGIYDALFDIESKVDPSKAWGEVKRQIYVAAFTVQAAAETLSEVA
T1 sequence (P08637 17-208 limits assumed): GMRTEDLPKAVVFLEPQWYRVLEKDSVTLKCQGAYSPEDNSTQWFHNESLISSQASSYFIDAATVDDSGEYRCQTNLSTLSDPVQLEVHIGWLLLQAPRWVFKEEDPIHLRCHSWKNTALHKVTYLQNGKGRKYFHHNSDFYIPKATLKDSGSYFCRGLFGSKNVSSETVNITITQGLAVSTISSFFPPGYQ
T3 sequence (Q04609 44-750 limits assumed): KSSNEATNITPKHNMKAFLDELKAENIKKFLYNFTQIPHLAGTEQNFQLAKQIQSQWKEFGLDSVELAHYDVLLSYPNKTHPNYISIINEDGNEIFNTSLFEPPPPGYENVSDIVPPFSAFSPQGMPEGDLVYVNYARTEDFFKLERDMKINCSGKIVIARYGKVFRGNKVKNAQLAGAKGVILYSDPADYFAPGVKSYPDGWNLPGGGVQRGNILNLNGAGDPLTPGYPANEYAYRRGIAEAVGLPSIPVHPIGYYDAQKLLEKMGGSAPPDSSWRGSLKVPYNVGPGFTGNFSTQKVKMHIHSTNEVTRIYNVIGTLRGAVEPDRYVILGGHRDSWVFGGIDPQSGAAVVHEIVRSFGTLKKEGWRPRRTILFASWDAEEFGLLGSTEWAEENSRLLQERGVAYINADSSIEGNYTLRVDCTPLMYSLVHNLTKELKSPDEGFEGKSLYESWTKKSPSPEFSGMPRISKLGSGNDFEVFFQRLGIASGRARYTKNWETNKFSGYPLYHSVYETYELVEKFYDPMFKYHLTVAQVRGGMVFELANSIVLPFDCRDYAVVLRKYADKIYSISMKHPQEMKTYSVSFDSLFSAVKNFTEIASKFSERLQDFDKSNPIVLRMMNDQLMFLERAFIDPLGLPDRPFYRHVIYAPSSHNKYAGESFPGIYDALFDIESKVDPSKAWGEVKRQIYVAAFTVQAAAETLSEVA

B1: C37 (anti-CD16a sdAb) (VHH)
VHH: EVQLVESGGGLVQPGESLTLSCVVAGSIFSFAMSWYRQAPGKERELVARIGSDDRVTYADSVKGRFTISRDNIKRTAGLQMNSLKPEDTAVYYCNAQTDLRDWTVREYWGQGTQVTVSS
notes: also called CD16a sdAb domain alone; monospecific anti-CD16a sdAb
As to B1, the binding result in experiment [1] was “binds”.

B2: C25 (C37-L3-C36) (bispecific antibody)
chain: EVQLVESGGGLVQPGESLTLSCVVAGSIFSFAMSWYRQAPGKERELVARIGSDDRVTYADSVKGRFTISRDNIKRTAGLQMNSLKPEDTAVYYCNAQTDLRDWTVREYWGQGTQVTVSSGGGGSGGGGSGGGGSGGGGSQVQLQESGGGSVEAGGSLRLSCARSGWPYSTYSMNWFRQAPGKEREAVAGISSTMSGIIFAESKAGQFTISQDNAKNTVYLQMNNLKPEDTAIYYCAARRYFSLSSSSDDFDYWGQGTQVTVSSAAAYPYDVPDYGSSPSTPPTPSPSTPPHHHHHH
notes: also called C25 (TYR); non-covalent construct C25
With B2, the “EC50; ADCC luciferase reporter assay (Jurkat CD16a V158 reporter cells), PC3pip 24 h continuous” value in experiment [2] amounted to 9.2 nM. Besides, in experiment [3], the “EC50; ADCC reporter assay, PC3pip 4 h washout, 24 h endpoint” value is 0.141 nM. The “EC50; ADCC reporter assay, 22Rv1 24 h continual” value in experiment [4] was 12.1 nM. Besides, the “EC50; ADCC reporter assay, 22Rv1 4 h washout, 24 h endpoint” value in [5] was 62.6 nM. For the same molecule, the “EC50 [nM]; primary human NK cell-mediated killing of PC3pip cells, no washout, 20 h incubation” value in [6] was 7.02 nM. Besides, in experiment [7], the “EC50 [nM]; NK cell-mediated killing of PC3pip cells, 5 h washout, 20 h incubation” value was 26.2 nM. In [8], this molecule returned a Kd of 1.11 nM, a koff of 0.000152 s⁻¹ and an on-rate (kon) of 137000 M⁻¹ s⁻¹. Besides, in [9], the Kd was 1570 nM, the dissociation rate constant (koff) was 0.0483 s⁻¹ and the kon was 30800 M⁻¹ s⁻¹. In experiment [10], this molecule showed a Kd of 1160 nM, an off-rate (koff) of 0.03 s⁻¹ and a kon of 25900 M⁻¹ s⁻¹.

B3: C22 (C37-L3-C35) (bispecific antibody)
chain: B2 chain with Y240X
modifications: FSY (fluorosulfonyltyrosine) at the position printed X in SEQ ID NO: 37 (position 101 of the anti-PSMA sdAb domain)
notes: anti-CD16a sdAb C37 - 4x(G4S) - anti-PSMA sdAb-FSY C35; entry holds HA tag, SP tag and His6; also called C22 (FSY); FSY-containing bispecific construct
On to B3, for which, in [11], the “fold potency against C25; NK cell-mediated killing of PC3pip cells, 5 hr incubation and washout” value is 140 fold. In addition, the “fold potency against C25; NK cell-mediated killing of PC3pip cells, test article present throughout” value in experiment [11] came out at 106 fold. Also, in [2], the “EC50; ADCC luciferase reporter assay (Jurkat CD16a V158 reporter cells), PC3pip 24 h continuous” value was determined as 0.219 nM. For the same molecule, the “EC50; ADCC reporter assay, PC3pip 4 h washout, 24 h endpoint” value in experiment [3] was found to be 0.667 nM. The “EC50; ADCC reporter assay, 22Rv1 24 h continual” value in experiment [4] was found to be 0.54 nM. Also, the “EC50; ADCC reporter assay, 22Rv1 4 h washout, 24 h endpoint” value in experiment [5] amounted to 3.19 nM. Moreover, the “EC50 [nM]; primary human NK cell-mediated killing of PC3pip cells, no washout, 20 h incubation” value in [6] is 0.066 nM. The “EC50 [nM]; NK cell-mediated killing of PC3pip cells, 5 h washout, 20 h incubation” value in experiment [7] was 0.188 nM. In addition, the Kd is 1.48 nM in experiment [8], no more than 1140 nM in experiment [9] and less than 1 nM in experiment [13]. Moreover, the koff in experiment [8] was 8.69e-05 s⁻¹; in experiment [9], 0.0465 s⁻¹; in [12] it was less than 1e-07 s⁻¹. For the same molecule, the kon in [8] stood at 58800 M⁻¹ s⁻¹; in [9], 40700 M⁻¹ s⁻¹; in experiment [14], 12800 M⁻¹ s⁻¹.

B4: C28 (bispecific antibody)
chain: EVQLVESGGGLVQPGGSLRLSCAASGDIYKSFDMGWYRQAPGKQRDLVAVIGSRGNNRGRTNYADSVKGRFTISRDGTGNTVYLLMNKLRPEDTAIYYCNTAPLVAGRPWGRGTLVTVSSGGGGSGGGGSGGGGSGGGGSQVQLQESGGGSVEAGGSLRLSCARSGWPYSTYSMNWFRQAPGKEREAVAGISSTMSGIIFAESKAGQFTISQDNAKNTVYLQMNNLKPEDTAIYYCAARRYFSLSSSSDDFDYWGQGTQVTVSSAAAYPYDVPDYGSSPSTPPTPSPSTPPHHHHHH
Regarding B4, the “EC50; T-cell luciferase reporter assay with PC3pip target cells, 6 hr” value (“EC50; T-cell luciferase reporter assay” for short) in [11] came out at 14.8 nM.

B5: C32 (bispecific antibody)
chain: QVQLQESGGGSVEAGGSLRLSCARSGWPYSTYSMNWFRQAPGKEREAVAGISSTMSGIIFAESKAGQFTISQDNAKNTVYLQMNNLKPEDTAIYYCAARRYFSLSSSSDDFDYWGQGTQVTVSSGGGGSGGGGSGGGGSGGGGSEVQLVESGGGLVQPGGSLRLSCAASGDIYKSFDMGWYRQAPGKQRDLVAVIGSRGNNRGRTNYADSVKGRFTISRDGTGNTVYLLMNKLRPEDTAIYYCNTAPLVAGRPWGRGTLVTVSSAAAYPYDVPDYGSSPSTPPTPSPSTPPHHHHHH
Consider B5, for which the “EC50; T-cell luciferase reporter assay” value in experiment [11] was 1.42 nM.

B6: C34 (bispecific antibody)
chain: QVQLQESGGGSVEAGGSLRLSCARSGWPYSTYSMNWFRQAPGKEREAVAGISSTMSGIIFAESKAGQFTISQDNAKNTVYLQMNNLKPEDTAIYYCAARRXFSLSSSSDDFDYWGQGTQVTVSSGGGGSGGGGSGGGGSGGGGSEVQLVESGGGLVQPGGSLRLSCVASGDVHKINFLGWYRQAPGKEREKVAHISIGDQTDYADSAKGRFTISRDESKNMVYLQMNSLKPEDTAVYFCRAFSRIYPYDYWGQGTLVTVSSAAAYPYDVPDYGSSPSTPPTPSPSTPPHHHHHH
modifications: FSY (fluorosulfonyltyrosine) at the position printed X in SEQ ID NO: 49 (position 101 of the anti-PSMA sdAb domain)
With B6, in experiment [11], the “EC50; T-cell luciferase reporter assay” value was determined as 1.42 nM and the “fold potency against C33; T-cell luciferase reporter assay, PC3pip” value came to 21.9 fold.

B7: C33 (bispecific antibody)
chain: B6 chain with X101Y
As for B7, the “EC50; T-cell luciferase reporter assay” value in experiment [11] was 31.1 nM.

B8: C30 (bispecific antibody)
chain: EVQLVESGGGLVQPGGSLRLSCVASGDVHKINFLGWYRQAPGKEREKVAHISIGDQTDYADSAKGRFTISRDESKNMVYLQMNSLKPEDTAVYFCRAFSRIYPYDYWGQGTLVTVSSGGGGSGGGGSGGGGSGGGGSQVQLQESGGGSVEAGGSLRLSCARSGWPYSTYSMNWFRQAPGKEREAVAGISSTMSGIIFAESKAGQFTISQDNAKNTVYLQMNNLKPEDTAIYYCAARRXFSLSSSSDDFDYWGQGTQVTVSSAAAYPYDVPDYGSSPSTPPTPSPSTPPHHHHHH
modifications: FSY (fluorosulfonyltyrosine) at the position printed X in SEQ ID NO: 45 (position 101 of the anti-PSMA sdAb domain)
For B8, in experiment [11], the “EC50; T-cell luciferase reporter assay” value was 0.51 nM; the “fold potency against C29; T-cell luciferase reporter assay, PC3pip” value came to 11.8 fold; the “fold potency against the commercial CD3-PSMA bispecific antibody; T-cell luciferase reporter assay, PC3pip” value was 1.6 fold.

B9: C29 (bispecific antibody)
chain: B8 chain with X238Y
Turning to B9, the “EC50; T-cell luciferase reporter assay” value in experiment [11] was 5.98 nM.

B10: C31 (bispecific antibody)
chain: QVQLQESGGGSVEAGGSLRLSCARSGWPYSTYSMNWFRQAPGKEREAVAGISSTMSGIIFAESKAGQFTISQDNAKNTVYLQMNNLKPEDTAIYYCAARRYFSLSSSSDDFDYWGQGTQVTVSSGGGGSGGGGSGGGGSGGGGSEVQLVESGGGPVQAGGSLRLSCAASGRTYRGYSMGWFRQAPGKEREFVAAIVWSGGNTYYEDSVKGRFTISRDNAKNTMYLQMTSLKPEDSATYYCAAKIRPYIFKIAGQYDYWGQGTLVTVSSAAAYPYDVPDYGSSPSTPPTPSPSTPPHHHHHH
In the case of B10, in experiment [11], the “EC50; T-cell luciferase reporter assay” value is 5.33 nM.

B11: C27 (bispecific antibody)
chain: EVQLVESGGGPVQAGGSLRLSCAASGRTYRGYSMGWFRQAPGKEREFVAAIVWSGGNTYYEDSVKGRFTISRDNAKNTMYLQMTSLKPEDSATYYCAAKIRPYIFKIAGQYDYWGQGTLVTVSSGGGGSGGGGSGGGGSGGGGSQVQLQESGGGSVEAGGSLRLSCARSGWPYSTYSMNWFRQAPGKEREAVAGISSTMSGIIFAESKAGQFTISQDNAKNTVYLQMNNLKPEDTAIYYCAARRXFSLSSSSDDFDYWGQGTQVTVSSAAAYPYDVPDYGSSPSTPPTPSPSTPPHHHHHH
modifications: FSY (fluorosulfonyltyrosine) at the position printed X in SEQ ID NO: 42 (position 101 of the anti-PSMA sdAb domain)
With B11, in [11], the “EC50; T-cell luciferase reporter assay” value was determined as 0.59 nM; the “fold efficacy against the commercial CD3-PSMA bispecific antibody; T-cell luciferase reporter assay, PC3pip” value came to 1.2 fold; the “fold potency against C26; T-cell luciferase reporter assay, PC3pip” value was 12.7 fold; the “fold potency against the commercial CD3-PSMA bispecific antibody; T-cell luciferase reporter assay, PC3pip” value turned out to be 1.4 fold.

B12: C26 (bispecific antibody)
chain: B11 chain with X245Y
Take B12: the “EC50; T-cell luciferase reporter assay” value in [11] was 7.4 nM.
